Laboratory results as given in US20240261333A1, “NOVEL TARGETS FOR ENHANCING ANTI-TUMOR IMMUNITY” (THE BROAD INSTITUTE, INC., priority 2021, published 2024).

Columns and labels:
PABPC1 (human) = PABPC1 (human) (UniProt P11940); test: IgG control IP from lysate of cells overexpressing N-FLAG B3GNT2, then mass spectrometry
CAPRIN1 (human) = CAPRIN1 (human) (UniProt Q14444); test: as above
ERP44 (human) = ERP44 (human) (UniProt Q9BS26); test: anti-FLAG co-IP from lysate of C-FLAG B3GNT2 cells, mass spectrometry
KPNB1 (human) = KPNB1 (human) (UniProt Q14974); test: as above
PXN (human) = PXN (human) (UniProt P49023); test: as above
TRAFD1 (human) = TRAFD1 (human) (UniProt O14545); test: as above
ELOC (human) = ELOC (human) (UniProt Q15369); test: as above
RCN1 (human) = RCN1 (human) (UniProt Q15293); test: as above
IFI16 (human) = IFI16 (human) (UniProt Q16666); test: as above
RRBP1 (human) = RRBP1 (human) (UniProt Q9P2E9); test: as above
ATAD3A (human) = ATAD3A (human) (UniProt Q9NVI7); test: as above
HSP90AB1 (human) = HSP90AB1 (human) (UniProt P08238); test: as above
EEF2 (human) = EEF2 (human) (UniProt P13639); test: as above
ABCD1 (human) = ABCD1 (human) (UniProt P33897); test: as above
DNAJA3 (human) = DNAJA3 (human) (UniProt Q96EY1); test: as above
UBTF (human) = UBTF (human) (UniProt P17480); test: as above
ACSL3 (human) = ACSL3 (human) (UniProt O95573); test: as above
PGAM5 (human) = PGAM5 (human) (UniProt Q96HS1); test: as above
FBXO6 (human) = FBXO6 (human) (UniProt Q9NRD1); test: as above
PSMB6 (human) = PSMB6 (human) (UniProt P28072); test: as above
ZRANB2 (human) = ZRANB2 (human) (UniProt O95218); test: as above
LDHA (human) = LDHA (human) (UniProt P00338); test: as above
KTN1 (human) = KTN1 (human) (UniProt Q86UP2); test: as above
HDGFL2 (human) = HDGFL2 (human) (UniProt Q7Z4V5); test: as above
AIFM1 (human) = AIFM1 (human) (UniProt O95831); test: as above
RPL15 (human) = RPL15 (human) (UniProt P61313); test: as above
IPO7 (human) = IPO7 (human) (UniProt O95373); test: as above
H1FX (human) = H1FX (human) (UniProt Q92522); test: as above
SLC25A22 (human) = SLC25A22 (human) (UniProt Q9H936); test: as above
NTPCR (human) = NTPCR (human) (UniProt Q9BSD7); test: as above
SFXN3 (human) = SFXN3 (human) (UniProt Q9BWM7); test: as above
TUBA1C (human) = TUBA1C (human) (UniProt Q9BQE3); test: as above
PDIA4 (human) = PDIA4 (human) (UniProt P13667); test: as above
STAU1 (human) = STAU1 (human) (UniProt O95793); test: as above
LARP4 (human) = LARP4 (human) (UniProt Q71RC2); test: as above
RPS6 (human) = RPS6 (human) (UniProt P62753); test: as above
TECR (human) = TECR (human) (UniProt Q9NZ01); test: as above
RPL34 (human) = RPL34 (human) (UniProt P49207); test: as above

HSP90AB1 (human), sequence (P08238 2-724 limits assumed): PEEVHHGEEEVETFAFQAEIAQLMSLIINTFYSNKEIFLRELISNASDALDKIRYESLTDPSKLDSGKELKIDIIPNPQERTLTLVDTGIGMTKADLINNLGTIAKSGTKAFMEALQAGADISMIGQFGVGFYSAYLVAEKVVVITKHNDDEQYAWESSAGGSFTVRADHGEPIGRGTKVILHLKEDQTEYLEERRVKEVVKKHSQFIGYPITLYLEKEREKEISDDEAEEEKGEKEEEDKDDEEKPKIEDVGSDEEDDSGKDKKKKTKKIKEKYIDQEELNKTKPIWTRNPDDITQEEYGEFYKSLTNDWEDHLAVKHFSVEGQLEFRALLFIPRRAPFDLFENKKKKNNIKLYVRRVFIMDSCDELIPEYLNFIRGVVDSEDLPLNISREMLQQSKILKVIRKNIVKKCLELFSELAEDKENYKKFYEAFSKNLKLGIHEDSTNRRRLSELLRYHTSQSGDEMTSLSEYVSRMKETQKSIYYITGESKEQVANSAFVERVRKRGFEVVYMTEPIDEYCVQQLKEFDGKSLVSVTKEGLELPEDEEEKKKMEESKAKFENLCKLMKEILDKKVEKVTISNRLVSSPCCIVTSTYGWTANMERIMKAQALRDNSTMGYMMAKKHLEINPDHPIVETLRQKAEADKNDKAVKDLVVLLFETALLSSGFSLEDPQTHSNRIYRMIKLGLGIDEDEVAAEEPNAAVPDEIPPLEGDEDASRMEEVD
ATAD3A (human), sequence (Q9NVI7 2-586 limits assumed): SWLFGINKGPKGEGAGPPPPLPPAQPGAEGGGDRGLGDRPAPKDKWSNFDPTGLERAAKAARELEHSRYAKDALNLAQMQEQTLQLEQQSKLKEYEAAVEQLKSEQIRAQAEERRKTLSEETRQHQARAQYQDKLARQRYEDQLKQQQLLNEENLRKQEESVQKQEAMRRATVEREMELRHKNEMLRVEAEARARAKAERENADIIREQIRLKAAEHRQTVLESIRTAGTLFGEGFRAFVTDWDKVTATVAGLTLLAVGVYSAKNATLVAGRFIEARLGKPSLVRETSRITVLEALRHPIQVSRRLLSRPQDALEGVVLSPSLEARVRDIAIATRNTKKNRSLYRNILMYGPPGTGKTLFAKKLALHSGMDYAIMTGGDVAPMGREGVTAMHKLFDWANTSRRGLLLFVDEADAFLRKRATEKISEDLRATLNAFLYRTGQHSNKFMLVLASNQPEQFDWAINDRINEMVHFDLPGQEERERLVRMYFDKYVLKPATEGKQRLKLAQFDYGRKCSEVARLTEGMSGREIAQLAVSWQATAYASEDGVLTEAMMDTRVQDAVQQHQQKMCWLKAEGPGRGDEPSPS
KTN1 (human), sequence (Q86UP2 whole entry): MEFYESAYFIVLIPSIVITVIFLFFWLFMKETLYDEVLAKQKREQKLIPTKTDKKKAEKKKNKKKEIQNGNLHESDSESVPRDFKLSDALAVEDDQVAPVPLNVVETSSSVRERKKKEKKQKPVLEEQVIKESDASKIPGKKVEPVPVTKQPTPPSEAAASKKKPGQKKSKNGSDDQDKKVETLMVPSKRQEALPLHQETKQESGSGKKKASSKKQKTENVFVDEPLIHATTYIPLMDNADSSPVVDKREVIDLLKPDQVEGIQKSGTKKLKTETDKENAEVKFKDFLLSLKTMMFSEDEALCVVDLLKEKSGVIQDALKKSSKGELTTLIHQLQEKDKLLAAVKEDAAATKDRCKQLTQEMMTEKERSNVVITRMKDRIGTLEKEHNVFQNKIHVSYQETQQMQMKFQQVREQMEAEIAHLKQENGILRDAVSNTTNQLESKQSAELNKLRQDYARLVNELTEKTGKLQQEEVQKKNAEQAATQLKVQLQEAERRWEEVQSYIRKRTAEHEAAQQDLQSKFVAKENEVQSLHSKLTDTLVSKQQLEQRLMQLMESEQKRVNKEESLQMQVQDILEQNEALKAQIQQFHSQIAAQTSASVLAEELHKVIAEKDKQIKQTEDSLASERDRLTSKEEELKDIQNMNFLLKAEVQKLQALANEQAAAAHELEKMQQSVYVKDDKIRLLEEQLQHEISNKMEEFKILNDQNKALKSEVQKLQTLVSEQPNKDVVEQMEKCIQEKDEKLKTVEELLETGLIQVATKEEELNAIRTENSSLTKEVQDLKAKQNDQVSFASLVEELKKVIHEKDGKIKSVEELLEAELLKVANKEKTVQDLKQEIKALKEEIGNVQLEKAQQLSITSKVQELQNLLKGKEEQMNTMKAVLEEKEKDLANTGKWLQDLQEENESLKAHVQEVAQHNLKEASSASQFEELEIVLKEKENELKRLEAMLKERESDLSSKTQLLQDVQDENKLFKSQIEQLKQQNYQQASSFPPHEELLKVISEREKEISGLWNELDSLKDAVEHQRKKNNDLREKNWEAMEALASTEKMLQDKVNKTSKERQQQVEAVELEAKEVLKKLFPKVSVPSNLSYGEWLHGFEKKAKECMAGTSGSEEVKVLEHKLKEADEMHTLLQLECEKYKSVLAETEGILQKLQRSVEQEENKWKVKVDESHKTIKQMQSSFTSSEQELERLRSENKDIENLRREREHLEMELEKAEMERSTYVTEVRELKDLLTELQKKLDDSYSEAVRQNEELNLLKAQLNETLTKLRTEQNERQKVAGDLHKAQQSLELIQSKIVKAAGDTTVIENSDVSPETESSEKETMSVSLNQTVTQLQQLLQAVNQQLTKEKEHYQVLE
ELOC (human), sequence (Q15369 whole entry): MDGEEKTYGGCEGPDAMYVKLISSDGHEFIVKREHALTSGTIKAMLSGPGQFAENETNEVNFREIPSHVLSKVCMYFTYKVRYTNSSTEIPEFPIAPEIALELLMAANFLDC
SLC25A22 (human), sequence (Q9H936 whole entry): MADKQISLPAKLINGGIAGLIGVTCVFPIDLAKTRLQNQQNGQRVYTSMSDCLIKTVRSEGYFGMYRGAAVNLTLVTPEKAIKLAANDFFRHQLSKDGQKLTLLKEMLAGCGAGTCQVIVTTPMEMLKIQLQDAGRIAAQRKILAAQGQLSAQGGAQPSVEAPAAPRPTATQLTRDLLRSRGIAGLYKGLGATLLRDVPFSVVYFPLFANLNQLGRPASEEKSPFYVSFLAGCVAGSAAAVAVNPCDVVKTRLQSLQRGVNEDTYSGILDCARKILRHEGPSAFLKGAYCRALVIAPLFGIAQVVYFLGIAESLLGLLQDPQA
ACSL3 (human), sequence (O95573 whole entry): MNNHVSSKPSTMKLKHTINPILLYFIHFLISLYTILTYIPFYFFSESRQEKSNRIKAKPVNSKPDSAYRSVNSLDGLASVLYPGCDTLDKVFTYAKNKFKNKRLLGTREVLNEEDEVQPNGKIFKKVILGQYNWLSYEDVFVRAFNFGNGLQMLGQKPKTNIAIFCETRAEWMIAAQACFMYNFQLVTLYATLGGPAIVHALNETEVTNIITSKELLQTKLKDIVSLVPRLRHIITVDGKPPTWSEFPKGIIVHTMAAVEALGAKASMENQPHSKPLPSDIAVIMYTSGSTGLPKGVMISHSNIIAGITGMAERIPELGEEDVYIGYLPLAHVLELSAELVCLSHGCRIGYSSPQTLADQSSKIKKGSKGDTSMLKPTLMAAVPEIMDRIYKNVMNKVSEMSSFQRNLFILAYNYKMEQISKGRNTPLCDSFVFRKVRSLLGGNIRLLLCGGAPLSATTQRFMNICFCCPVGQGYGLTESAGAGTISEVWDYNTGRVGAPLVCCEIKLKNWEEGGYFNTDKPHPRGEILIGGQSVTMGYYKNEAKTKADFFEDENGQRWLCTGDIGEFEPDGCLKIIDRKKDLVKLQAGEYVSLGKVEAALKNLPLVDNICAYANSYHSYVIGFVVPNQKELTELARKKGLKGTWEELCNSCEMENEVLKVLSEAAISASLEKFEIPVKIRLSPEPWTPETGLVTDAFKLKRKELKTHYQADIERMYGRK
AIFM1 (human), sequence (O95831 55-613 limits assumed): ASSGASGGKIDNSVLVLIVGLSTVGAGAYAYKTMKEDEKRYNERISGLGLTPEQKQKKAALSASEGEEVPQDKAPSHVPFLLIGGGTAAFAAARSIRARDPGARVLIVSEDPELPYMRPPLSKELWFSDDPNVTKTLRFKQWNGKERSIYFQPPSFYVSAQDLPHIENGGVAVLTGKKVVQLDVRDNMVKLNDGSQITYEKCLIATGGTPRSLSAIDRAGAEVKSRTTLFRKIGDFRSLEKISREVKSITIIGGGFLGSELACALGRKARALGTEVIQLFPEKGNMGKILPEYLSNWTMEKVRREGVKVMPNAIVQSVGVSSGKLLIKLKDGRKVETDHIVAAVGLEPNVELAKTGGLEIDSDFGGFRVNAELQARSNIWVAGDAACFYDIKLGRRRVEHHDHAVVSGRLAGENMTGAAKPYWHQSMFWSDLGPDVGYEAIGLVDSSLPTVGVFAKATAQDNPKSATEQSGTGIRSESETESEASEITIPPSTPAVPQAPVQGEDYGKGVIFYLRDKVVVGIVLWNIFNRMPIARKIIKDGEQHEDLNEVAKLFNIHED
PABPC1 (human), sequence (P11940 whole entry): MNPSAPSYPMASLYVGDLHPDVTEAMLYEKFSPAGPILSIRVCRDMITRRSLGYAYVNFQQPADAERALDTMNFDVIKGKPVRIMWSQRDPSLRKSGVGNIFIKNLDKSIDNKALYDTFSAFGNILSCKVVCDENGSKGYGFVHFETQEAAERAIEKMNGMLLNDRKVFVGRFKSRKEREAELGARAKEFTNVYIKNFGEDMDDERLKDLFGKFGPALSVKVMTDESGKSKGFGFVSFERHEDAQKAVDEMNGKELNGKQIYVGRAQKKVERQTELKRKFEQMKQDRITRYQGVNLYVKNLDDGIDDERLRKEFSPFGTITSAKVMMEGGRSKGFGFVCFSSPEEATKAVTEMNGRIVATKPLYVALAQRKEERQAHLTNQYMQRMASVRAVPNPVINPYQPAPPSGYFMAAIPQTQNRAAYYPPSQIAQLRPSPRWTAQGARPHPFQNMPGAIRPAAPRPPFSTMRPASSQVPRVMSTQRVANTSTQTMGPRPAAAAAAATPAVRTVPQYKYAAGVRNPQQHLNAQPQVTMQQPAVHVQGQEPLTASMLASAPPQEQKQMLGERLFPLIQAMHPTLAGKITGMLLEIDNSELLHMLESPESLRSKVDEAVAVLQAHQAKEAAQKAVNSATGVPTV

Substance: IgG control (Millipore Sigma 12-371) (antibody)
- co-IP mass spectrometry count (N-term IgG) (PABPC1 (human)): 37
- co-IP mass spectrometry count (N-term IgG) (CAPRIN1 (human)): 6

Substance: C-terminal FLAG tagged B3GNT2 (from UniProt Q9NY97 1-397) (enzyme)
- co-IP mass spectrometry count (ERP44 (human)): 2
- co-IP mass spectrometry count (KPNB1 (human)): 7
- co-IP mass spectrometry count (PXN (human)): 0
- co-IP mass spectrometry count (TRAFD1 (human)): 2
- co-IP mass spectrometry count (ELOC (human)): 2
- co-IP mass spectrometry count (RCN1 (human)): 9
- co-IP mass spectrometry count (IFI16 (human)): 2
- co-IP mass spectrometry count (RRBP1 (human)): 16
- co-IP mass spectrometry count (ATAD3A (human)): 9
- co-IP mass spectrometry count (HSP90AB1 (human)): 11
- co-IP mass spectrometry count (EEF2 (human)): 5
- co-IP mass spectrometry count (ABCD1 (human)): 2
- co-IP mass spectrometry count (DNAJA3 (human)): 2
- co-IP mass spectrometry count (UBTF (human)): 2
- co-IP mass spectrometry count (ACSL3 (human)): 5
- co-IP mass spectrometry count (PGAM5 (human)): 5
- co-IP mass spectrometry count (FBXO6 (human)): 5
- co-IP mass spectrometry count (PSMB6 (human)): 3
- co-IP mass spectrometry count (ZRANB2 (human)): 3
- co-IP mass spectrometry count (LDHA (human)): 4
- co-IP mass spectrometry count (KTN1 (human)): 2
- co-IP mass spectrometry count (HDGFL2 (human)): 2
- co-IP mass spectrometry count (AIFM1 (human)): 5
- co-IP mass spectrometry count (RPL15 (human)): 15
- co-IP mass spectrometry count (IPO7 (human)): 9
- co-IP mass spectrometry count (H1FX (human)): 2
- co-IP mass spectrometry count (SLC25A22 (human)): 2
- co-IP mass spectrometry count (NTPCR (human)): 2
- co-IP mass spectrometry count (SFXN3 (human)): 2
- co-IP mass spectrometry count (TUBA1C (human)): 63
- co-IP mass spectrometry count (PDIA4 (human)): 9
- co-IP mass spectrometry count (STAU1 (human)): 6
- co-IP mass spectrometry count (LARP4 (human)): 2
- co-IP mass spectrometry count (RPS6 (human)): 20
- co-IP mass spectrometry count (TECR (human)): 9
- co-IP mass spectrometry count (RPL34 (human)): 2
